Among the data in article PMC6193142 are stoichiometry N (molecules per microfibril repeat) values, retold here.

The test has as its target fibrillin (of fibrillin microfibrils purified from the ciliary zonule) (bovine (endogenous in ciliary zonule)) (UniProt P98133). Description: negative-stain TEM with single-particle 3D reconstruction; microfibrils purified from bovine ciliary zonule; 2797 repeat particles; 2-fold symmetry imposed along the microfibril axis; sub-models of bead, arm and interbead; number of chains judged from volume and from fitting domain models into the interbead density.

As to “fibrillin (of fibrillin microfibrils purified from the ciliary zonule) (from UniProt P98133 25-2871) (natural protein)”, the stoichiometry N (molecules per microfibril repeat) was determined as 8.
